The term IC50 denotes the concentration that inhibits the measured activity by half. Low values mean greater potency, high ones weaker potency.

In test [1] the target is T1, αvβ6 integrin on DX3puroβ6 (αvβ6+) cells (human), P06756.
T1 chain 1: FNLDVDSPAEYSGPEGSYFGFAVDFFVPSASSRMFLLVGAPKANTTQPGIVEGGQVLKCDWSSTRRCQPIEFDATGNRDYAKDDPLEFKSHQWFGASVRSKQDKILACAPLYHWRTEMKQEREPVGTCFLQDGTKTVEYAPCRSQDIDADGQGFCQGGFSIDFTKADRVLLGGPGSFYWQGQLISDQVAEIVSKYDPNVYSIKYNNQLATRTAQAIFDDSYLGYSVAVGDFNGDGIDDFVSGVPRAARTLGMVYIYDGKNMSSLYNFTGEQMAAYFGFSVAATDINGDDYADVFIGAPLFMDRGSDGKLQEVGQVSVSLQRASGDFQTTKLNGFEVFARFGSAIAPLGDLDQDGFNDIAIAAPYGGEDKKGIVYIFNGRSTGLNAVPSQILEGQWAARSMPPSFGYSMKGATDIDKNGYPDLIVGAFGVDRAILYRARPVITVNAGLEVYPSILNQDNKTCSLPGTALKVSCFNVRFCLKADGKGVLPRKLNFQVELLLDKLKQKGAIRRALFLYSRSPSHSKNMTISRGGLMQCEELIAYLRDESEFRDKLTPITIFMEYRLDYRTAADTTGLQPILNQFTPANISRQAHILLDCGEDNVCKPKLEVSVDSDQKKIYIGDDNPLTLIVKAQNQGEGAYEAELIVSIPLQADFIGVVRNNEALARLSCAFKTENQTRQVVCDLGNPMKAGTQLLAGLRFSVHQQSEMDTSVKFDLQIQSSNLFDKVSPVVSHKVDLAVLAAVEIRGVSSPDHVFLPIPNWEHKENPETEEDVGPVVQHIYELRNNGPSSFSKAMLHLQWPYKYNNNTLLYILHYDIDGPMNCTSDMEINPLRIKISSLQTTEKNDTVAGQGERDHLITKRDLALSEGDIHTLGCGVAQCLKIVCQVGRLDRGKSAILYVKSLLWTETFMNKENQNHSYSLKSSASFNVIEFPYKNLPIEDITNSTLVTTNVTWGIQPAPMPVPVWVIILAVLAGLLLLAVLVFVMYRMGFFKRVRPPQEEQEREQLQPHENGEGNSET
T1 chain 2: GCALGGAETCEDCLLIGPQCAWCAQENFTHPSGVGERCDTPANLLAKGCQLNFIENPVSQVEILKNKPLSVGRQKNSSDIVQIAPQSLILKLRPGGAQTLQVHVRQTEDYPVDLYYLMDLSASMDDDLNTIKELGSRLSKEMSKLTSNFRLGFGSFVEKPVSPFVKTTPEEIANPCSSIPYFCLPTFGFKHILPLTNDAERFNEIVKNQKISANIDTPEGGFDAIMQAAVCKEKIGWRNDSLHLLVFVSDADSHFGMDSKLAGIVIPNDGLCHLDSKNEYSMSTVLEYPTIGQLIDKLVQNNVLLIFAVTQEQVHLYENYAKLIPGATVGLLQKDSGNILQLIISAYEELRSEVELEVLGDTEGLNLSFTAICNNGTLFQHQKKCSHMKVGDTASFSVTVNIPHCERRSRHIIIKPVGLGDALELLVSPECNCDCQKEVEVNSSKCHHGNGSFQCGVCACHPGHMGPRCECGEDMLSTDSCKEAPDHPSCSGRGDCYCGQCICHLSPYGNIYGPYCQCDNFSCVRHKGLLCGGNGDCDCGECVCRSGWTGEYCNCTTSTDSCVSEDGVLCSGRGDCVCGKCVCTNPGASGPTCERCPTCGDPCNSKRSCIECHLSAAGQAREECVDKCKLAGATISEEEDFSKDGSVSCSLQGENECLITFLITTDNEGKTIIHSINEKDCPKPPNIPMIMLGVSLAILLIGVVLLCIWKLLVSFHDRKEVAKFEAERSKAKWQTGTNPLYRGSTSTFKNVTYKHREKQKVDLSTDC
Briefly: 18F peptide cell binding, αvβ6+ over αvβ6- cells.

Test [2] has as its target T1, αvβ6 integrin on DX3puroβ6 (αvβ6+) …. Briefly: 18F peptide binding to DX3puroβ6 (αvβ6+) cells, 1 h, gamma counting.
Test [3] has as its target T2, αvβ8 integrin (purified), P06756.
T2 chain 1: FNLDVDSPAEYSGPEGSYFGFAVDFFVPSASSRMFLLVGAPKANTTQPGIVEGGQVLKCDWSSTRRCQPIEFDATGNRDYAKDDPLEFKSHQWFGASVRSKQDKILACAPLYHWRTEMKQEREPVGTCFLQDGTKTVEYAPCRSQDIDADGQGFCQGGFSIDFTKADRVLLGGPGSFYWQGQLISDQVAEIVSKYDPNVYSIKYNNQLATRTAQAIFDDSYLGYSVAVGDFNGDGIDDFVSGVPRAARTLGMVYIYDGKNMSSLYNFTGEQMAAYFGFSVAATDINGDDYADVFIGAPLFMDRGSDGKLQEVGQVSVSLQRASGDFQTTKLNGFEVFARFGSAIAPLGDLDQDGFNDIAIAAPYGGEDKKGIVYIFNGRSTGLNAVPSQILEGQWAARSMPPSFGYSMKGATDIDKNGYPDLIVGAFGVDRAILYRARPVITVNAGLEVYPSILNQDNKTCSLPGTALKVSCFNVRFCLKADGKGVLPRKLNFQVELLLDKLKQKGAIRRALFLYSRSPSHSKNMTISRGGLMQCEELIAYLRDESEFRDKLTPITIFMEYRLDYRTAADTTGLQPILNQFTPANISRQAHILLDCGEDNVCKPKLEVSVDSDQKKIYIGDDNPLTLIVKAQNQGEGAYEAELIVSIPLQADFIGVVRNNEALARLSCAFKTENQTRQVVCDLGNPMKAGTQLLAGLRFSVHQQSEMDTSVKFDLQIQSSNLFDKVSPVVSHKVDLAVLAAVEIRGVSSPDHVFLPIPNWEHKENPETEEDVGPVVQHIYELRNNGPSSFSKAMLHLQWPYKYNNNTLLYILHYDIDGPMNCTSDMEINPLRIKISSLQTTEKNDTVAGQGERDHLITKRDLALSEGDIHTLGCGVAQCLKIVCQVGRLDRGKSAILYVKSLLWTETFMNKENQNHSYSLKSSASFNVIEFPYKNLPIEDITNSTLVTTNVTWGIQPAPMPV
T2 chain 2: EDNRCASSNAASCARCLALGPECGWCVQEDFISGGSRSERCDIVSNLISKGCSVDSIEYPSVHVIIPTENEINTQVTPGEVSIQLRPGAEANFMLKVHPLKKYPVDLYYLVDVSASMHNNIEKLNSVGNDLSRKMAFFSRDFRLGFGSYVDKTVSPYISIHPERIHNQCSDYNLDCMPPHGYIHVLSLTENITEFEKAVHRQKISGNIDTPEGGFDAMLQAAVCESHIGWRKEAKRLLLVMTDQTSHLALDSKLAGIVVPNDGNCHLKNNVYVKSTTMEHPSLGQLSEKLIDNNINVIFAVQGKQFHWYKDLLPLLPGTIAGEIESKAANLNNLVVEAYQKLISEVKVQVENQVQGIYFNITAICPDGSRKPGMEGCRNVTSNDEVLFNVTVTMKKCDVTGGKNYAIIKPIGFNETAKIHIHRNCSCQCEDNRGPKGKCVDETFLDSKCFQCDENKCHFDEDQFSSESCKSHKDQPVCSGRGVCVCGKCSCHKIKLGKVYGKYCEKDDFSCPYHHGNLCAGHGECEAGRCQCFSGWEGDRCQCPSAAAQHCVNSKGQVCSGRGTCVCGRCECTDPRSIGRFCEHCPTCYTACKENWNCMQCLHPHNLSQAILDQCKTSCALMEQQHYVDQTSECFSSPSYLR
Briefly: competitive ELISA vs BtLAP. In general terms: ELISA stands for enzyme-linked immunosorbent assay.

For test [4], the target named is T3, αvβ6 integrin (purified), P06756.
T3 chain 1: T2 chain 1
T3 chain 2: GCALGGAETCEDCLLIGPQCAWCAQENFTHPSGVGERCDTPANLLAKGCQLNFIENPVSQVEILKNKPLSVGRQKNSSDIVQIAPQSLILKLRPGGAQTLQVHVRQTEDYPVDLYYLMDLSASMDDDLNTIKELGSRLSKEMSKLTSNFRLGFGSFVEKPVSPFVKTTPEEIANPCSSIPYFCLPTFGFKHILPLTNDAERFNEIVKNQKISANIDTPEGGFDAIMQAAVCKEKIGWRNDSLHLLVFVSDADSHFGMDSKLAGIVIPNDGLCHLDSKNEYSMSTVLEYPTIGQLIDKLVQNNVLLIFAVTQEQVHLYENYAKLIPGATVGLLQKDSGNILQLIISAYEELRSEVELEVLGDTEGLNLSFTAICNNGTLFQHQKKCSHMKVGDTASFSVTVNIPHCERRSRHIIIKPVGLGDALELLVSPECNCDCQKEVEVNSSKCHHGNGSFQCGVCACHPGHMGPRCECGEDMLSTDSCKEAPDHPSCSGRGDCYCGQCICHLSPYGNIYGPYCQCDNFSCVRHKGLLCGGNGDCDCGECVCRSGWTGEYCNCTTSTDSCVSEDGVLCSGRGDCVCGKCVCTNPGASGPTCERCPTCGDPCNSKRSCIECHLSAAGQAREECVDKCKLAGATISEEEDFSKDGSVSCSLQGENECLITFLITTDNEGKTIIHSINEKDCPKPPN
Briefly: competitive ELISA vs BtLAP.

As for RGDLQVLAQKVART (modifications not checked) [A20-14mer, FB-…], the DX3puroβ6 (αvβ6+)/DX3puro (αvβ6-) selectivity ratio in test [1] amounted to 8.4.
As for RGDLQVLA (modifications not checked) [A20-8mer, FB-RGDLQVLA], the DX3puroβ6 (αvβ6+)/DX3puro (αvβ6-) selectivity ratio in test [1] was 7.8.
RGDLADLRK (modifications not checked) [P3, …(FB)] yielded a % binding to cells in test [2] of 10.8%. The IC50 was 200 nM in test [3] and 420 nM in test [4]. Moreover, the DX3puroβ6 (αvβ6+)/DX3puro (αvβ6-) selectivity ratio in test [1] was 1.4.
The molecule RSDLTPLF (modifications not checked) [KL3, FB-RSDLTPLF] returned a % binding to cells in test [2] of 0.7%. The same molecule yielded a half-inhibitory concentration (IC50) in test [4] of 1700 nM. Besides, the DX3puroβ6 (αvβ6+)/DX3puro (αvβ6-) selectivity ratio in test [1] was found to be 0.9.
In test [4], RTDLDSLRT (modifications not checked) [RTD-9mer, FB-…] came in with an IC50 of 22 nM. Further, in test [1], the DX3puroβ6 (αvβ6+)/DX3puro (αvβ6-) selectivity ratio amounted to 1.7.
On to GRGDLGRL (modifications not checked) [SFLAP3-8mer, FB-GRGDLGRL], for which, in test [4], the IC50 came to 89 nM. Moreover, in test [1], the DX3puroβ6 (αvβ6+)/DX3puro (αvβ6-) selectivity ratio is 1.4.
On to VGDLTYLKK (modifications not checked) [P1, …(FB)], for which, in test [2], the % binding to cells came to 12.8%. In addition, the IC50 in test [3] stood at 5300 nM; in test [4], 450 nM. Moreover, in test [1], the DX3puroβ6 (αvβ6+)/DX3puro (αvβ6-) selectivity ratio turned out to be 1.1.
